Test results taken from PMC8857057.

Target: Pab1 monomer (Saccharomyces cerevisiae, UniProt P04147 1-577)
Assay: fluorescence anisotropy

Chain of Pab1 monomer (P04147 whole entry): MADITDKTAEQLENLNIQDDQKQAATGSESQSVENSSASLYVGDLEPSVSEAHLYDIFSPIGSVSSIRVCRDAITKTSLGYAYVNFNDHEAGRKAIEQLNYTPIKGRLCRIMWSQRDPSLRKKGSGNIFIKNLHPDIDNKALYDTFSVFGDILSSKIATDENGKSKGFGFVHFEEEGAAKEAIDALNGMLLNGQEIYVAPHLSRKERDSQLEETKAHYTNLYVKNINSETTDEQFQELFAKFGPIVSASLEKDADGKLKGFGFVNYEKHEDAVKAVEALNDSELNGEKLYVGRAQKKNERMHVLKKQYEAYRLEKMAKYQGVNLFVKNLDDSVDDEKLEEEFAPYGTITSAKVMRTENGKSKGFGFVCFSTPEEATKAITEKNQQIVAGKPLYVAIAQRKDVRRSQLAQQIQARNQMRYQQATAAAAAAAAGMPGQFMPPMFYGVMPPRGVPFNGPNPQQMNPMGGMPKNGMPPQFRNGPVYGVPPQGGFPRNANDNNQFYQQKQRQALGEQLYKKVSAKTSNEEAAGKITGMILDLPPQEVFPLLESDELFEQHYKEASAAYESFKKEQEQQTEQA

B1: A19 RNA (ssRNA)
RNA: AAAAAAAAAAAAAAAAAAA
B1: binds.
